Experimental data taken from patent US20100211325A1.

Legend:
[1] = target: Laminin 511/521 (LM511/521) (UniProt O15230); assay: ELISA, 0.05 nM Lu gpFc captured by anti-human Fc, 5 nM LM511/521, anti-laminin detection
[2] = target: Laminin 511/521 (LM511/521) (UniProt O15230); assay: SPR (Biacore X), Lu gpFc captured on protein A chip (40 RU), 100 µl injection of 10 nM LM511/521, total change in RU
[3] = target: Laminin 511/521 (LM511/521) (UniProt O15230); assay: ELISA in buffers of pH 4.0 to 11.0 and 1M NaCl, negative control Fc fusion protein captured, LM511/521 added

Muc18 Fc fusion protein (negative control), sequence (P43121 24-559): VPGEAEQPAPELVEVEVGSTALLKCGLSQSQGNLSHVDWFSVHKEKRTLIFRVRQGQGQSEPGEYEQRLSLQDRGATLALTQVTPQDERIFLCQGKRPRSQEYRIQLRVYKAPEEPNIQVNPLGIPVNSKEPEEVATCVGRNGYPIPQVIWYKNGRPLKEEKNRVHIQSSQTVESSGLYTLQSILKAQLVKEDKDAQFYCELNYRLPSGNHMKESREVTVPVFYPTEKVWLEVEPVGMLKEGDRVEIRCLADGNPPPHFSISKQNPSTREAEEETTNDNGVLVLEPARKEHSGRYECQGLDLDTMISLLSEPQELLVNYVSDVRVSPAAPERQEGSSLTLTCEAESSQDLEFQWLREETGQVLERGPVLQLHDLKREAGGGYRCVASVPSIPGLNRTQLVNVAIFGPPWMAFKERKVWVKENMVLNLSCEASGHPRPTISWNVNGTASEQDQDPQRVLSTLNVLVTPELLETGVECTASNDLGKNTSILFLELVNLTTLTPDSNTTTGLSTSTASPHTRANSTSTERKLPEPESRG

Substance | ELISA % of native Lu gpFc [1] [%] | Biacore Δ RUs [2] [RU] | OD450 (background binding) [3] [OD450]
Lu gpFc D198A/D199A (from UniProt P50895 32-547) (Fc fusion) | 49 | 59.7 | 
Lu gpFc D310A (from UniProt P50895 32-547) (Fc fusion) | 26.4 | 38.5 | 
Lu gpFc D312A (from UniProt P50895 32-547) (Fc fusion) | 20.7 | 4.4 | 
Lu gpFc D315A (from UniProt P50895 32-547) (Fc fusion) | 93.2 | 116 | 
Lu gpFc D316A (from UniProt P50895 32-547) (Fc fusion) | 75 | 79.8 | 
Lu gpFc E234A (from UniProt P50895 32-547) (Fc fusion) | 90.7 | 85 | 
Lu gpFc E269A (from UniProt P50895 32-547) (Fc fusion) | 63.2 | 73.8 | 
Lu gpFc E280A (from UniProt P50895 32-547) (Fc fusion) | 73 | 99.1 | 
Lu gpFc E281A (from UniProt P50895 32-547) (Fc fusion) | 97.3 | 100 | 
Lu gpFc E309A (from UniProt P50895 32-547) (Fc fusion) | 40.4 | 44.9 | 
Muc18 Fc fusion protein (negative control) (from UniProt P43121 24-559) |  |  | 0.18 to 0.64
